Results published in patent US20240158480A1 (ACADEMY OF MILITARY MEDICAL SCIENCE PLA, published 2024).

T1: NiV-MY G (Nipah virus, Malaysia strain (NiV-MY), UniProt Q9IH62 71-602)
T1 construct: also called G protein of NiV-MY; Malaysia Nipah virus glycoprotein G
T1 sequence: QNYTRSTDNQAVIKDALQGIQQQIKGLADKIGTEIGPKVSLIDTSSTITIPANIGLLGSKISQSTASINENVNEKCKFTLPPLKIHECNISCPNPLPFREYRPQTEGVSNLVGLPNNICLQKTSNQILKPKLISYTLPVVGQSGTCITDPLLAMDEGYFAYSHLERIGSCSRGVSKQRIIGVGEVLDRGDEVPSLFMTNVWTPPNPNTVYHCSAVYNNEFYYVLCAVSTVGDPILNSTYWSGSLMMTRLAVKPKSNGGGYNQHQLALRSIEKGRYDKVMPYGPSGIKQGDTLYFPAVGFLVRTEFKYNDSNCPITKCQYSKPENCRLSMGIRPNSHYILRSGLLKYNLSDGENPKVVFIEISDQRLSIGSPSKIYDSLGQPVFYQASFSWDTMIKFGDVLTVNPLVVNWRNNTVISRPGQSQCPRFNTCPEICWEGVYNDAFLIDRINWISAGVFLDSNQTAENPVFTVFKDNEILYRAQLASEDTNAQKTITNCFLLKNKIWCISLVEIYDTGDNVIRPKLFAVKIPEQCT

B1: 1D11 (antibody, V domains shown)
VH: EVQLVESGGGLVQPGGSLRLSCAASGFTFSSYDMSWVRQAPGKGLEWVSSISSVTSYISYADSVKGRFTISRDNAKNSLSLQMNSLKTEDTAVYYCTTENWNFDFWGQGVLVTVSS
VL: DVVMTQSPLSLATTPGQPASISCRSSQSLVHSNGNTYLSWYQQKPGQPPRLLIYEVSNRDSGVPDRFSGSGAGTDFTLKISRVEAEDVGVYYCGQGTHWPPFTFGPGTKLDIK
notes: also called antibody 1D11; monoclonal antibody 1D11; copies: 2 + 2
B2: 1F9 (antibody, V domains shown)
VH: QVQLQESGPGLVKPSETLSLSCAVSGGSFSDYWWGWIRQSPGKGLEWIGSIYGSSGRTAYSPSLKSRATISRDTSKNQLFLRLTSVTAADTGVYYCTNERFYGDSNRFDVWGPGVLVTVSS
VL: QPVLTQPTSLSASPGASARLTCTLSSGISVGNYRIFWYQQKPGSPPRYLLNYHTDSDKHQGSGVPSRFSGSKDASANAGILLISGLQSEDEADYYCMIWHNNVDVFGGGTKLTVLR
B3: 1A9 (antibody, V domains shown)
VH: VQLQESGPGLVKPSETLSLTCAVSGDSISTGYDWTWIRQPPGKGLEWIGYIGGSSGNTNYNPSLKSRVTISKDTSKNQFSLKLSSVTAADTAVYYCARDGTRVYYYGLDSWGQGVVVTVSS
VL: ETVVTQEPSLSVSPGGTVTLTCGLSSGSVSTSNYPSWFQQTPGQAPRMLIYSTNIRPSGVPNRFSGSILGNKAALTITGAQADDESDYYCFFSMVSGTSVFGGGTRLTVLR
B4: 2B6 (antibody, V domains shown)
VH: QVQLVQSGAEVKKPGASVKLSCKASGYTFTSFYINWVRQAPGQVLEWMGWINPSNGDTGYAQKFQGRVTMSRDTSTSTAYMELSSLRSEDTAVYYCTRETVGSGTFDCWGQGVLVTVSS
VL: DIVMTQTPLSLSVTLGEPASISCRSSQSLVYSAGKTYLDWYLQKPGQSPQLLIYLVSKRASGVPDKFSGSGSGTDFTLKISRVEAEDVGVYYCMQALRSPLTFGGGTKVELK
notes: also called antibody 2B6; monoclonal antibody 2B6; copies: 2 + 2

How the values were obtained:
[1] = molecular target: NiV-BD G (Nipah virus, Bangladesh strain (NiV-BD)); assay: ELISA, G protein coated at 1 µg/mL, antibody titrated 1:3 from 20 µg/mL
NiV-MY G [2] = molecular target: T1, NiV-MY G; assay: as above
[3] = molecular target: NiV-BD G (Nipah virus, Bangladesh strain (NiV-BD)); assay: cell-based or functional assay
NiV-MY G [4] = molecular target: T1, NiV-MY G; assay: cell-based or functional assay

Row | Binder | EC50 [1] | EC50 (NiV-MY G [2]) | neutralization of HIV-NiV-BD pseudovirus (luciferase, 293T cells) [3] | half inhibiting concentration (IC50), NiV-MY pseudovirus neutralization (NiV-MY G [4])
1 | B1 | 0.00991 µg/mL | 0.0202 µg/mL | 100% | 0.0579 µg/mL
2 | B2 | 0.015 µg/mL |  | 100% | 
3 | B3 | 0.0183 µg/mL |  |  | 
4 | B4 | 0.0054 µg/mL | 0.00956 µg/mL | 100% | 0.0283 µg/mL
